Values belong to the binder of their own block, whether it stands above or below them.
Legend:
[1] = target: the molecule itself; assay: crystal structure; CYRI-BΔN alone, selenomethionine SAD, 2.37Å, two molecules in the asymmetric unit; crystals at 291K, 0.1M carboxylic acid, 8% MPD_P1K_P33, 0.1M MOPS/HEPES-Na pH 8.0
[2] = target: Rac1Q61L (human, UniProt P63000 1-192, Q61L); assay: SPR; Biacore T200; anti-MBP antibody coupled on a CM5 chip; MBP-CYRI-BΔN captured (~800 RU) on flow-cell 2, MBP (400 RU) on flow-cell 1; Rac1Q61L 0.625μM-80μM as analyte; conditions: both partners purified

B1: mouse CYRI-B residues 26-324 (CYRI-BΔN) (domain or fragment, UniProt Q921M7 26-324, looked up)
chain: AQPTESEKEIYNQVNVVLKDAEGILEDLQSYRGAGHEIREAIQHPADEKLQEKAWGAVVPLVGKLKKFYEFSQRLEAALRGLLGALTSTPYSPTQHLEREQALAKQFAEILHFTLRFDELKMTNPAIQNDFSYYRRTLSRMRINNVPAEGENEVNNELANRMSLFYAEATPMLKTLSDATTKFVSENKNLPIENTTDCLSTMASVCRVMLETPEYRSRFTNEETVSFCLRVMVGVIILYDHVHPVGAFAKTSKIDMKGCIKVLKDQPPNSVEGLLNALRYTTKHLNDETTSKQIRSMLQ
modifications: selenomethionine labelled
notes: CYRI-B (Fam49B), mouse, residues 26-324 (entire DUF1394 domain; N-terminal residues 1-25 truncated); Two copies in the asymmetric unit of PDB 7AJL; also called Fam49B; source: E. coli B834 (DE3), selenomethionine labelled, purified (HisTrap, TEV, HisTrap flow-through, Superdex S200); not shown: His10, N-terminal, cleaved; MBP, N-terminal, cleaved
binding result [1]: binds

Kd [2]: 25 µM
B2: MBP-CYRI-BΔN (domain or fragment)
chain: B1 chain
notes: The purification of the uncleaved MBP fusion used for SPR is not described; source: E. coli BL21 pLysS; not shown: His10, N-terminal, kept; MBP, N-terminal, kept

— publication PMC7955166, “Structural Basis of CYRI-B Direct Competition with Scar/WAVE Complex for Rac1” (Structure(London, England:1993), 2021)
